The results in this text go back to the supplement of paper PMC12042874.

± gives the uncertainty stated by the source.

This data set in a line: amyloid nucleation score (Sup35N fusion, yeast selection) (log enrichment); library NNK2; higher = more nucleation; inactive = no reads after selection. The gist of the method:
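The nucleation score, computed with DiMSum, is the log enrichment of output over input reads, centred on the mode score of non-aggregating sequences. Sequences with under 100 input reads were dropped. Reads were generated by Illumina sequencing of plasmid inserts from psi-negative yeast with Sup35N fused to peptides of 20 random codons, induced with 100 μM copper sulfate for 24 hours and grown 7 days at 30°C on medium lacking adenine and uracil.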
Take TIYMMSRDFRF: the amyloid nucleation score was 4.748 ± 0.028.

Turning to TKEIVEGINTQLYRWTLFG, the amyloid nucleation score is -0.429 ± 0.25.

Substance TKLEYNTE yielded an amyloid nucleation score of 0.118 ± 0.77.

For TLATTGTHCVYYKNSWCKFR, the amyloid nucleation score was -0.498 ± 0.63.

Take TLAWRSGTRRELKEECNGGW: the amyloid nucleation score was 1.19 ± 0.59.

In turn, TLDNIRFKLQTAGTAIMWRR showed an amyloid nucleation score of 0.311 ± 0.24.

As to TLEKSFPLEFVV, the amyloid nucleation score was 0.204 ± 0.65.

Take TLFNMLDYSVVWYLFTSIHR: the amyloid nucleation score was -1.44 ± 1.1.

As for TLGLHGED, the amyloid nucleation score stood at 0.23 ± 0.31.

As for TLGREVSKVQNATSFLPMQA, the amyloid nucleation score is 0.926 ± 0.29.

On to TLHLWGSK, for which the amyloid nucleation score worked out at 1.38 ± 0.42.

TLHNYCYPMIRSCGQSPGRF showed an amyloid nucleation score of 0.208 ± 1.1.

On to TLHWK, for which the amyloid nucleation score was -0.667 ± 0.33.

The substance TLIDYYFYYCYGKSVDKAGL returned an amyloid nucleation score of -0.749 ± 0.45.

Substance TLLSNTSKLFLLHNYHQWVM showed an amyloid nucleation score of 0.062 ± 0.74.

The substance TLMGNVRTCPPAGRRATTAS had an amyloid nucleation score of 0.966 ± 0.22.

Regarding TLWHARTVKRDKWSSYGVGR, the amyloid nucleation score was 1.83 ± 0.12.

For the substance TLWLMPDLRTRLEAGCRYKT, the amyloid nucleation score is -0.08 ± 0.44.

TLYSVSLGKEFYYG returned an amyloid nucleation score of 0.192 ± 0.46.

The substance TMFASHFCWYALYYVCILNF displayed an amyloid nucleation score of 0.066 ± 1.

Substance TMHCSSLPQTSLVGTNHNAD yielded an amyloid nucleation score of -0.327 ± 0.28.

Take TMIKSQMLYFSGLATRLRLG: the amyloid nucleation score came to 0.098 ± 0.26.

In turn, TMIRYVERMVDNLFRNCRLP came in with an amyloid nucleation score of 0.827 ± 0.2.

For TMLSESTVQTKRVRMQESRR, the amyloid nucleation score amounted to 7.03 ± 0.071.

In turn, TMSHEFV had an amyloid nucleation score of 0.085 ± 0.6.

As to TMSPCINASIFWDYA, the amyloid nucleation score turned out to be 3.08 ± 0.05.

TNAACSPLTCGHQMAVSPNY came in with an amyloid nucleation score of 0.358 ± 0.32.

On to TNADGRTGT, for which the amyloid nucleation score is -0.385 ± 0.39.

Turning to TNCGRVINRSSVVHAFNYGV, the amyloid nucleation score entry is “inactive”.

Substance TNDLIRKFTLYMNQCDFNWS displayed an amyloid nucleation score of -0.633 ± 1.1.

With TNFYWY, the amyloid nucleation score amounted to 3.23 ± 0.065.

The substance TNLCVPFVYEHFGCYGYN had an amyloid nucleation score of 3.83 ± 0.12.

For the substance TNRGSQNGLMFFDRSWKGYG, the amyloid nucleation score is -0.467 ± 0.5.

In turn, TNSSRISLNLGVLRGAQKDS came in with an amyloid nucleation score of -1.08 ± 0.45.

On to TNTSFQRCGLWLTMGYGRYH, for which the amyloid nucleation score was -0.286 ± 0.3.

TNVINRCLSPCFGRSLFNIV showed an amyloid nucleation score of -0.805 ± 1.1.

Regarding TPAWQLYGHTVLAGVQKNMV, the amyloid nucleation score is -0.077 ± 0.37.

In turn, TPMFHILLYFLNWCYCILVA returned an amyloid nucleation score of 0.165 ± 1.

The substance TPSDLVDINMDHAFCELCRR yielded an amyloid nucleation score of 0.413 ± 0.45.

In the case of TPSKKDGECWNFYRTMWFTG, the amyloid nucleation score was -0.492 ± 0.79.

With TQDDAHQVRGQCVPSENIGP, the amyloid nucleation score was 1.96 ± 0.21.

Substance TRADDL came in with an amyloid nucleation score of 0.205 ± 0.4.

For the substance TRAWITWAKVWRSQMNRGKA, the amyloid nucleation score came to 0.699 ± 0.54.

The substance TRDAVGVLTLSSTLTTCSTC registered an amyloid nucleation score of -0.26 ± 0.35.

TRDCHYMVGRLMIEWFQSVW returned an amyloid nucleation score of -0.063 ± 0.21.

Consider TRDILGRGVDQFFIVSYRFN, for which the amyloid nucleation score was -1.11 ± 0.45.

For TRDNST, the amyloid nucleation score is 0.32 ± 0.53.

For TRFILYLGCDE, the amyloid nucleation score is -1.25 ± 0.54.

Substance TRNGWGSTGSLQRSQVSVWS gave an amyloid nucleation score of 0.25 ± 0.42.

The substance TRPCMFFRIELISLSTVLAR returned an amyloid nucleation score of 0.552 ± 0.46.

TRSDMLVLLCIIMCFSYSYP displayed an amyloid nucleation score of 6.31 ± 0.09.

Substance TRSPEYNCRSVEGTVSDKDK yielded an amyloid nucleation score of -0.832 ± 0.49.

Consider TRSTNVQLDPYFYLW, for which the amyloid nucleation score was -1.16 ± 0.39.

Substance TRWCYSDFPMVKLFLLKFIT registered an amyloid nucleation score of 0.416 ± 0.8.

With TRYIADRAVVSNRC, the amyloid nucleation score came out at 0.81 ± 0.31.

The substance TRYSILVDRRNRIFVVADPD yielded an amyloid nucleation score of 0.615 ± 0.32.

The substance TSAENRLMMAEARKYCVRSF yielded an amyloid nucleation score of 3.66 ± 0.087.

Consider TSCHRLWLLFMCIAGG, for which the amyloid nucleation score was -0.199 ± 0.79.

Consider TSDLNNSSSMKAYSNEHSGC, for which the amyloid nucleation score came out at 0.411 ± 0.4.

TSFGCWSQAYKMMRFDLCSV came in with an amyloid nucleation score of -0.145 ± 0.21.

TSFHYCCSR showed an amyloid nucleation score of 6.146 ± 0.03.

As for TSFLPELRGLYGRAIVARNY, the amyloid nucleation score was -1.39 ± 1.1.

TSGMNDITR gave an amyloid nucleation score of -0.093 ± 0.23.

In turn, TSGQNESDA returned an amyloid nucleation score of 0.578 ± 0.81.

Turning to TSIILGFFLMTTLQN, the amyloid nucleation score entry was “inactive”.

Take TSLGNL: the amyloid nucleation score is -0.825 ± 1.1.

In the case of TSLSVVSGFLAFSGSPHSGT, the amyloid nucleation score was determined as 4.39 ± 0.05.

TSLVLCYLTIELSVLISSGN showed an amyloid nucleation score of 0.221 ± 0.36.

TSPSYVTSCYRFVKEIDHWK returned an amyloid nucleation score of -1.29 ± 1.1.

Substance TSRWDWIINSVRHIYWFSCF returned an amyloid nucleation score of 4.26 ± 0.12.

In turn, TSVCM registered an amyloid nucleation score of 3.89 ± 0.1.

TSWSLVVVKVDIWPNQSVWV came in with an amyloid nucleation score of -0.391 ± 0.55.

Take TSYKVVLVTYRT: the amyloid nucleation score came out at 5.81 ± 0.074.

TSYRVRGVGSSELCGSLKLR: the amyloid nucleation score came to 0.627 ± 0.36.

Consider TTDGNQAISVKLMTYLTRPL, for which the amyloid nucleation score was -0.187 ± 0.41.

TTEYG yielded an amyloid nucleation score of 0.239 ± 0.5.

On to TTFIRLVIITPWV, for which the amyloid nucleation score worked out at 2.75 ± 0.15.

TTIFYKPLQCLLGLFFYP: the amyloid nucleation score was -0.623 ± 1.

TTMWYTS yielded an amyloid nucleation score of -0.837 ± 1.1.

For the substance TTQDATLIVNSCNTFTLQVY, the amyloid nucleation score was -0.389 ± 0.29.

Substance TTTESMRIWPTNRFKRCTLQ returned an amyloid nucleation score of 0.582 ± 0.2.

In the case of TVAKSLVYLSVCQVAA, the amyloid nucleation score stood at 0.035 ± 1.

For TVAMSGASQYDEYVSESMMT, the amyloid nucleation score is 0.061 ± 0.27.

Regarding TVFNR, the amyloid nucleation score was found to be 0.236 ± 0.3.

For TVFPMREIEVLFDSIWYGFN, the amyloid nucleation score was determined as 1.71 ± 0.096.

Turning to TVGGNQTLSKLFWSFQGMFW, the amyloid nucleation score entry was “inactive”.

In the case of TVKNRA, the amyloid nucleation score was found to be 0.694 ± 0.51.

TVLFKGLRYRRNFKFGTQTT gave an amyloid nucleation score of -0.056 ± 0.76.

For the substance TVMLFIVHLPCDRTFYL, the amyloid nucleation score amounted to 0.682 ± 0.45.

Turning to TVNFYKRWSDCQLMSFIVRV, the amyloid nucleation score result is “inactive”.

As to TVSLTWEKYNEQIHA, the amyloid nucleation score turned out to be 0.399 ± 0.74.

With TVYEMGASMLVKILHWKVLN, the amyloid nucleation score is -0.801 ± 0.38.

As for TVYIYSLVSRNKEVMFFTD, the amyloid nucleation score result is “inactive”.

TVYSGILKSY came in with an amyloid nucleation score of -0.574 ± 1.

The substance TWDVNVLHVYLSMSSTTLHF registered an amyloid nucleation score of -0.46 ± 0.45.

Regarding TWKTSLS, the amyloid nucleation score entry was “inactive”.

The substance TWRLACRFLL gave an amyloid nucleation score of -0.12 ± 0.56.

For TWSHTPNALWMDALRSTLQA, the amyloid nucleation score turned out to be 1.05 ± 0.38.

With TYHIYFVCLKSLWRFGEDCL, the amyloid nucleation score is 4.37 ± 0.055.

For the substance TYHYLMYLLVRRNMGDVNGA, the amyloid nucleation score worked out at 3.49 ± 0.097.

Consider TYKEYCGE, for which the amyloid nucleation score was -0.693 ± 0.78.

Substance TYLMSFICNNLRVDIANINR showed an amyloid nucleation score of 0.141 ± 0.3.

With TYLNLLSNAMNVAWFS, the amyloid nucleation score is 2.83 ± 0.19.

In turn, TYLVQWMCCRWMPMHFRIMT had an amyloid nucleation score of -0.369 ± 0.79.

In turn, TYLWSLGYVSFQL displayed an amyloid nucleation score of -0.206 ± 0.79.

On to TYMSYFSSTWKILVGAHWRR, for which the amyloid nucleation score stood at 1.85 ± 0.18.

Regarding TYPHVLTP, the amyloid nucleation score was -0.022 ± 0.37.

Consider VACETRRRA, for which the amyloid nucleation score was found to be 4.948 ± 0.04.

Substance VACHVR returned an amyloid nucleation score of 0.975 ± 0.4.

Turning to VAEVKRLHIYWRAPSFRSAN, the amyloid nucleation score is -0.596 ± 0.79.

In turn, VAEYGLENDWFLHWQICMNS yielded an amyloid nucleation score of -0.618 ± 0.48.

The substance VAFKSTLQVLVANKFG registered an amyloid nucleation score of -0.627 ± 1.

Substance VAGSS had an amyloid nucleation score of -0.101 ± 0.29.

For VALVSGVNNTKDMSRAPNRV, the amyloid nucleation score is -0.19 ± 0.36.

In turn, VATLRSRHFDEHSHVVFSSS registered an amyloid nucleation score of 0.236 ± 0.29.

For the substance VCDRFWFSLDLWLFIRTFRF, the amyloid nucleation score is -0.679 ± 1.1.

VCDVLYKFGYSKN displayed an amyloid nucleation score of 4.89 ± 0.058.

Regarding VCGVNV, the amyloid nucleation score is -0.363 ± 1.1.

Turning to VCSNCNMDVTSYQASCKAYL, the amyloid nucleation score is 0.783 ± 0.53.

The substance VCSTLVSFHHQRVKKVDAV gave an amyloid nucleation score of -1.12 ± 0.78.

Consider VCTWYRVAIDRRINIS, for which the amyloid nucleation score is 1.96 ± 0.066.

Turning to VDCWMSISCQDYDSKFKVKS, the amyloid nucleation score amounted to 0.242 ± 0.77.

VDHLFIRIHSVMIPAL came in with an amyloid nucleation score of -0.447 ± 1.1.

The substance VDIEDGLG showed an amyloid nucleation score of 0.13 ± 0.22.

The substance VDITRWIDVMVYF yielded an amyloid nucleation score of -0.19 ± 0.62.

In turn, VDIWVWVG showed an amyloid nucleation score of 0.456 ± 0.6.

For VDLGMPSLWRSDGASPGGFF, the amyloid nucleation score is 0.277 ± 0.49.

In turn, VDRFFLEARCLELTSQ had an amyloid nucleation score of 0.34 ± 0.5.

VDRRNAKYWRGRKSTWVRGV showed an amyloid nucleation score of 1.3 ± 0.26.

Consider VDRWDGSVHCSIGGNFYCSG, for which the amyloid nucleation score was -0.545 ± 0.54.

VEFLWGFWWYKPQRKSVGST gave an amyloid nucleation score of -1.54 ± 0.75.

VEFVVPKI gave an amyloid nucleation score of -0.586 ± 1.1.

With VEINNNE, the amyloid nucleation score was -0.065 ± 0.56.

With VEMRLGRDEIFNRHQKGIYA, the amyloid nucleation score stood at 2.02 ± 0.36.

Substance VEREDVHKGRRFAQACNNLV displayed an amyloid nucleation score of 0.495 ± 0.41.

In turn, VETYT returned an amyloid nucleation score of 0.022 ± 0.65.

The substance VEYINWRFIRNTYSVE had an amyloid nucleation score of 2.14 ± 0.12.

As for VFAMDYDVCDNSTCHKGV, the amyloid nucleation score is -0.057 ± 0.21.

On to VFAYYIDRARSSRVPCTVAN, for which the amyloid nucleation score stood at 4.28 ± 0.12.

VFDAKTFGGDTVFVAAEAHS yielded an amyloid nucleation score of -0.669 ± 1.

With VFDSPLHQWFYIKLIMLSTL, the amyloid nucleation score result is “inactive”.

As to VFDVISI, the amyloid nucleation score is -0.064 ± 0.76.
